Experimental data published in patent US20180128830A1, “DETECTION OF HUMAN CYTOMEGALOVIRUS IN BREAST CANCER” (priority 2015, published 2018).

What was measured:
IL-10R = biological target: T1, IL-10R (Homo sapiens, UniProt Q13651); test: IL-10R immunofluorescence microscopy; format: cell-based; conditions: MDA-MB-231 cells, 100 ng/ml, 15 min
T1 construct: uninfected tumor cells express the IL-10R complex; endogenous in cells; host or cells: MDA-MB-231 human breast cancer cells
T1 sequence (Q13651 22-578): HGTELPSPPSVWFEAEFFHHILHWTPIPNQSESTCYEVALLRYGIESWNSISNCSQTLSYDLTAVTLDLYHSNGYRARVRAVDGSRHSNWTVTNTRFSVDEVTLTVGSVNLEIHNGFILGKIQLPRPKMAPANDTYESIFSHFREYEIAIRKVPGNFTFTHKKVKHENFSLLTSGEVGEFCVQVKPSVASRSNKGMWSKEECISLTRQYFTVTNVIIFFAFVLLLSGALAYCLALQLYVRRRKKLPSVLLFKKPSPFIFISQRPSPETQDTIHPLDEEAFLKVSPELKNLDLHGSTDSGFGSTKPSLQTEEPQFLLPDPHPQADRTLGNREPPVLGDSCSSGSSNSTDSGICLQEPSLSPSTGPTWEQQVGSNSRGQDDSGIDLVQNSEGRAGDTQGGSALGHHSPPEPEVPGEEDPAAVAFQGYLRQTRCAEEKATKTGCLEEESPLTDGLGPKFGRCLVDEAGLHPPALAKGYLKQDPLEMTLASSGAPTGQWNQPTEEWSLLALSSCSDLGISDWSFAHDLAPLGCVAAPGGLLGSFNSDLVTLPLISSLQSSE
T1 sequence (Q08334 20-325 partner): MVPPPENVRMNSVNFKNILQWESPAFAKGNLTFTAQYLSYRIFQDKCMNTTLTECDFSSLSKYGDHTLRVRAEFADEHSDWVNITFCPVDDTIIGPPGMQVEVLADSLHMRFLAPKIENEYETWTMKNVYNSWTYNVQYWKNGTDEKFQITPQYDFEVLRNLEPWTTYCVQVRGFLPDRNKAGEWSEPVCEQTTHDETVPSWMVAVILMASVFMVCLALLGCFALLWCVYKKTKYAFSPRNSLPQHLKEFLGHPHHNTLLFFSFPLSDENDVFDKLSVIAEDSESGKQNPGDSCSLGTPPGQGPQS
Description: MDA-MB-231 cells were seeded into 6-well dishes containing FBS-coated glass coverslips at a density of 2×10^5 cells per well and then incubated for 48 hrs at 37° C. Cell monolayers were washed with PBS, fixed with 4% paraformaldehyde, then permeabilized with 0.2% (w/v) Triton X-100 followed by treatment with ice cold 50% methanol-50% acetone for 30 min. Cells were then blocked with PBS+10% FBS for 1 hr at 37° C. and stained with anti-IL-10Rα antibody (Santa Cruz Biotechnology) at a 1:100 dilution for 1 hr at 37° C. Following three PBS washes, the coverslips were incubated with TRITC-conjugated secondary antibody for 1 hr, washed again, and then mounted on a glass slide using Prolong Gold anti-fade reagent with DAPI (Life Technologies, Grand Island, N.Y.). HFF cells were also grown on coverslips as described, mock- or virus-infected, and stained with anti-IE1 (EMD Millipore) followed by FITC-conjugated secondary antibody. Images were acquired using a Zeiss LSM700 laser scanning confocal microscope using Zen Black software (Carl Zeiss, Inc., Oberkochen, Germany).

Stat1 = test: Western blot for Stat1 phosphorylation in MDA-MB-231 cells; format: cell-based, human; conditions: 100 ng/ml, 15 min
Description: For western blotting, cells were treated with 100 ng/ml cmvIL-10, hIL-10, IFNγ or PBS for 15 min, then harvested into cell lysis buffer (150 mM NaCl, 20 mM HEPES, 0.5% Triton-X-100, 1 mM NaOV4, 1 mM EDTA, 0.1% NaN3). Lysates were clarified, proteins were separated via SDS-PAGE, and then transferred to a nitrocellulose membrane. Then membrane was incubated in blocking solution (5% milk+1×TBS-T) for 1 hr, then probed with primary antibody at a 1:1000 dilution (total Stat3 or pStat3, total Stat1 or pStat1) in blocking solution overnight at 4° C. After washing, the membranes were incubated with a 1:2000 dilution of appropriate AP-conjugated secondary antibody and bands were detected using Western Blue stabilized AP substrate (Promega, Madison, Wis.). For analysis of secreted proteins, supernatants were collected at various time points, analyzed by SDS-PAGE and then immunoblotted as above for cmvIL-10, hIL-10, or serpin E1/PAI.

HEK293 cells = test: Transwell migration toward CXCL12; format: cell-based, human; conditions: 0.1 μg/ml cmvIL-10 in lower chamber, 4 hours
Description: Transwell migration assays were performed by suspending cells at a density of 5×10^4 cells/ml in migration media (MEM or RPMI […] media plus 0.5% FBS). A total of 75 μl of cells was placed onto the upper chamber of a 96-well transwell system with 5.0 μm pores (Corning-Costar, Corning, N.Y.). The lower chamber contained 235 μl of migration media with CXCL12 plus or minus cmvIL-10 as indicated. Plates were incubated for four hours at 37° C., and then cells that traversed through the filter into the lower chamber were quantified via the addition of CellTitre-Glo reagent (Promega, Madison, Wis.) according to manufacturer's instructions.

MMP-3 = MMP-3 western blotting and zymography; format: cell-based, human; conditions: over time
Description: Confluent T-75 flasks of MDA-MB-231 cells were treated with 10 ng/mL cmvIL-10 (R&D systems) for the indicated times, then scraped and harvested into cell lysis buffer (150 mM NaCl, 20 mM HEPES, 0.5% Triton-X-100, 1.0 mM NaOV4, 1.0 mM EDTA, 0.1% NaN3) containing 1× protease inhibitors (Calbiochem). Cell lysates were clarified via centrifugation, heated at 70° C. for 10 min in reducing buffer, and the proteins separated on a 4-12% Tris-Base SDS-PAGE gel (Life Technologies, Grand Island, N.Y.). After transfer to nitrocellulose, the membrane was incubated in blocking solution (5% milk+TBS) for 1 hr at room and then probed with primary antibody: 1:1000 dilution for MMP-3 or MTSS-1 antibodies (Santa Cruz), or MAPK antiserum (Cell Signaling Tech, Danvers, Mass.), in blocking solution overnight, oscillating on a platform rocker at 4.0° C. After three washes, the membranes were incubated with a 1:2000 dilution of appropriate AP-conjugated secondary antibody on a platform rocker at room temperature for 1 hr. Protein bands were detected using western blue stabilized AP substrate (Promega, Madison, Wis.). For zymography, cell lysates were denatured in SDS buffer under non-reducing conditions without heat, and run on a 4-16% Zymogram gel using Tris-Glycine SDS running buffer according to manufacturer's instructions. […]

B1: cmvIL-10 (protein)
chain: ATTTTIKNTKPQCRPEDYATRLQDLRVTFHRVKPTLQREDDYSVWLDGTVVKGCWGCSVMDWLLRRYLEIVFPAGDHVYPGLKTELHSMRSTLESIYKDMRQCPLLGCGDKSVISRLSQEAERKSDNGTRKGLSELDTLFSRLEEYLHSRK
For B1, the “IL-10R distribution after treatment” value (IL-10R) was “distinct redistribution of IL-10R”, the Stat1 phosphorylation (Stat1) was “did not globally activate other cellular effectors, such as Stat1” and the “migration toward CXCL12” value (HEK293 cells) was “significantly increased”. For the same molecule, the “amount of active MMP-3 enzyme (zymography, casein digestion)” value (MMP-3) was “also increased” and the “total MMP-3 protein (western blot)” value (MMP-3) was “increase in total MMP-3 protein”.
